According to the supplement of paper PMC9170038:

System: MS2 coat protein
Experiment: apparent KD of MS2 coat protein; designed switch direction (-1 OFF switch, 1 ON switch): -1; higher = weaker reporter binding
In short: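 Three titration conditions were used: no input, 200 uM small-molecule ligand, and an oligonucleotide input. In each, SNAP-549-labelled MS2 coat protein was raised from 0.7 or 1.5 nM, doubling, to 3 µM over designed RNA switches transcribed on Illumina chips by stalled E. coli RNA polymerase. Curve fits of normalised cluster fluorescence gave values whose per-design median over clusters is the apparent KD.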

[1] = input ligand: microRNA oligo, concentration not stated
[2] = Eterna round: R95, input ligand: FMN 200 uM
[3] = Eterna round: R95, input ligand: microRNA oligo, concentration not stated
[4] = Eterna round: R95, input ligand: none

Sequence	apparent KD of MS2 coat protein (input ligand: FMN 200 uM)	apparent KD of MS2 coat protein (input ligand: none)	apparent KD of MS2 coat protein [1]	apparent KD of MS2 coat protein [2]	apparent KD of MS2 coat protein [3]	apparent KD of MS2 coat protein [4]
CGUUGUCAAGGAUAUAUAGAGCUAUACAUGAGGAUCACCCAUGUGGUUAGUGUUGUGUGAGUAGAAGGUGGAAUGU [Eternabot (L2) Solution 99] (Eterna round: R97, puzzle: Exclusion 5)	84.3 nM	224 nM				
CAAUUAAUUAAUUAAUAAUACAUGAGGAUCACCCAUGUAGAUCCUACAUACAAGCUUUGUAGCUCGUCUUAUAAUUA [Stov1/3-A3] (Eterna round: R97, puzzle: Sensor, turn-off variant 1)	368 nM	417 nM				
UCAUGCUAAGGAUAUGACGUCGGCUACAUGAGGAUCACCCAUGUGGGUUCGUUAUGGCCAUUAGAAGGUAGCGAUU [Eternabot (L2) Solution 95] (Eterna round: R97, puzzle: Exclusion 5)	17.8 nM					
UCCAAGCGGAAGCAAUGAAACAUGAGGAUCACCCAUGUCCCGGUGGUCAUUCACCCAAGCUUUUUGUAGUCAACCUU [Eternabot (L1) Solution 42] (Eterna round: R97, puzzle: Sensor, turn-off variant 1)	249 nM	297 nM				
UUAAAAUAUGUAGGAUAUGCGUGGCGAAGCUAUGCAGAAGGACAUGAGGAUCACCCAUGUUCCUGCGUCCGCGUACGGAUGCAA [JL Eng1 1.21 mod 3] (Eterna round: R96, puzzle: Exclusion NG 1)	14.8 nM	12.4 nM	9.15 nM			
CACCGUUACCUAGGAUAUAGUACAUGAGGAUCACCCAUGUAAUAAAUGAGAAUUUCGGAUGUAUGCUAGAAGGAGGAAAUCGGC [Ostricism 49 - Jieux - Exclusion NG 2] (Eterna round: R96, puzzle: Exclusion NG 2)			29.7 nM			
AGUGCUAACACGUUGGUGUUAGUACCAUAAGCUUGUGAUACAUGAGGAUCACCCAUGUCCUCAUAAGCUCGUCUUAU [salish99_TOv2_r2_098] (puzzle: Sensor v3, turn-off variant 2)				30.6 nM	508 nM	29.4 nM
CGUUCGCGAGGAUAUGCAUUCGAGUCCACUACGUGUCUGGGACUUGAGGAUCACCCAAGUAGAAGGCGCCUCAA [salish99_ex2_r4_651] (Eterna round: R97, puzzle: Exclusion 2)	171 nM	230 nM				
CAUAUUCGAGGAUAUGCCUGAUGUCCUUAUGGAGCCCAUUCACAUGAGGAUCACCCAUGUAGAAGGCGGAUGCG [Eternabot (L1) Solution 37] (Eterna round: R97, puzzle: Exclusion 2)	31.2 nM	24.8 nM				
UUUGAGUUAGGAUAUGCCAAGUUGCACAUGAGGAUCACCCAUGUGAGGUGCCUUACUUAAGCAGAAGGAACAAUAA [EX5 C.13] (Eterna round: R97, puzzle: Exclusion 5)	22.1 nM	19.8 nM				
AAGAAACAUGAGGAUCACCCAUGUGAGGAUAUGACGAAGAAAAGAAAAGAAAGAAGACUCAGAAGGCACAAAGG [salish99-ex1_r3_076] (puzzle: Exclusion 1)				48 nM	26.7 nM	43.4 nM
AUGUUGUCAGGAUAUCUUACAUAACAAUCGUUGUUACCAUUGGAGAAGGGACAUGAGGAUCACCCAUGUUAACC [tap-tap-tappy45] (Eterna round: R97, puzzle: Exclusion 4)	23.9 nM	21.5 nM				
AAACCCUGAGGAUAUACAUAACAACAAACCCUCACGUGCCAACAUGAGGAUCACCCAUGUAGAAGGCAGGCCAA [Mod R3 Insanara 6 - Jieux - Exclusion 2] (Eterna round: R97, puzzle: Exclusion 2)	64.3 nM	18.7 nM				
GUGUACGGAGGAUAUAUAUGGGCAGCAUACGCUGCAGCUUCACAUGAGGAUCACCCAUGUAGAAGGCUGUACAC [Mat - Exclusion 2 - Mod of Hyphema - D100] (Eterna round: R96, puzzle: Exclusion 2)	223 nM	24.8 nM	18.5 nM			
AAUUCUAGGGUCAGACGCACAAGCUUUUUGCUCGUUUUAACAUGAGGAUCACCCAUGUCUAGUGGAUCUGAUCGGGC [JL ViennaUCT Isreen mod 8] (puzzle: Sensor v3, turn-off variant 2)				24.8 nM	72.9 nM	22.4 nM
UGAUUUGGAGGAUAUACAUGAGGAUCACCCAUGUAAAGGCCGUGGGUCGAACCCGAGAGUAGAAGGUCGAGAGA [Eternabot (L1) Solution 30] (Eterna round: R97, puzzle: Exclusion 3)	185 nM	91.7 nM				
GAUACACAUGAGGAUCACCCAUGUGAGGAUAUGCGUACGUUGUCCGUAGGCGACGUGCGCAGAAGGCGCAAGGU [Mat - Mod of JL D96] (puzzle: Exclusion 1)					55 nM	

Sequence	apparent KD of MS2 coat protein (input ligand: FMN 200 uM)	apparent KD of MS2 coat protein (input ligand: none)	apparent KD of MS2 coat protein [1]	apparent KD of MS2 coat protein [2]	apparent KD of MS2 coat protein [3]	apparent KD of MS2 coat protein [4]
AUUAUAUAGUAAGGAUAUAGAUUAUUAUUUUAACAUGAGGAUCACCCAUGUAGCCUUAUGUAUAACUAGAAGGUACAUUUAUUA [Title] (Eterna round: R96, puzzle: Exclusion NG 2)			35.7 nM			
UUGUAUAUCUAUGGGAGUAACAUGAGGAUCACCCAUGUAUGUCUUGUUUUUUGUUCGUCAUAGGCCAAUUGAAUGGU [JR_SV3TOV1_Sub026] (puzzle: Sensor v3, turn-off variant 1)				25.9 nM	34.5 nM	28.9 nM
AUGUCGGCAGGAUAUACAUGAGGAUCACCCAUGUAAAUUUUUCGUUUAACUUGAAUGUGUAGAAGGGCCAUGUA [Ex3 #69] (Eterna round: R97, puzzle: Exclusion 3)	29.1 nM	28.9 nM				
AACCUGAGGCAAAGCUUUAGGUGUACAUGAGGAUCACCCAUGUAGGAUAUGGUAGGCAAAGCUUACCAGAAGGACAUAAAGGUU [Mat - Exclusion NG 3 - Mod of JL - D45] (Eterna round: R96, puzzle: Exclusion NG 3)	81.4 nM	47.7 nM	36.4 nM			
UUGUUGUAUGUAGGAUAUGCAUAUUAUUAUUAUGCAGAAGGACAUGAGGAUCACCCAUGUAUGUUAUUAUUAUGUGUUAUGUGU [Title] (Eterna round: R96, puzzle: Exclusion NG 1)			33.9 nM			
AUAAGCUUUUAUAUCCUUAACAUGAGGAUCACCCAUGUUCGUCUUAUGAUGGUCUGAUCCCUGAGGAUCGGACCGUU [JL-sv1-2.04 Brourd Mod] (puzzle: Sensor v3, turn-off variant 1)				31 nM	76.5 nM	29.9 nM
UGAGUGCUGCGAGGAUAUACAUGAGGAUCACCCAUGUUAUCGUGUGAGGCUUUGCCUCACACGAAGUAGAAGGCGCAGUACUCU [JL ENG2 1.11] (Eterna round: R96, puzzle: Exclusion NG 2)	9.84 nM	14.2 nM	10.2 nM			
AGAAGUAGUAACCGAUCCUACAUGAGGAUCACCCAUGUAGCAAGACGUGCACGCGAAGCUCGUCAGACUACCAGAUG [salish99_TOv1_r3_020] (puzzle: Sensor v3, turn-off variant 1)				159 nM	252 nM	242 nM
CUAGUCCGAGGAUAUAUUAUGUGAUACAUGAGGAUCACCCAUGUUAUAUGAUGGAUGUUAAUAGAAGGCGGACUAG [Mat - Exclusion 5 - JL mod - D72] (puzzle: Exclusion 5)				246 nM	118 nM	110 nM
GGUUGGCGAGGAUAUACAUGAGGAUCACCCAUGUGAGAGAAAAAAGUGAGCAAGAAAAGUAGAAGGCGCUGACG [salish99_ex3_r3_030] (Eterna round: R96, puzzle: Exclusion 3)	209 nM	59.9 nM	110 nM			
CACCGUUAUAUAGGAUAUGUUACAUGAGGAUCACCCAUGUAAUAAAUGAGAAUUUCGAAUGUAAUACAGAAGGAUAGAAUCGGC [Ostracism 72 - Jieux - Exclusion NG 2] (Eterna round: R96, puzzle: Exclusion NG 2)	27.2 nM	22.9 nM	18.1 nM			
CCUCCACAUGAGGAUCACCCAUGUCAGGAUAUCGUGUGUUUUUUUUCGGUCUUUCGUGCGAGAAGGGACGUCUU (puzzle: Exclusion 1)					30.8 nM	
UUAUACGCUGAGGAUAUUAUCACUGAGAGGUGAUGAGAAGGCGGUACAUGAGGAUCACCCAUGUCUAUGGGCAG [Ex-6 Malc#22] (puzzle: Exclusion 6)					237 nM	
GCUGCAUCAGGAUAUAUACGGUAUCACAUGAGGAUCACCCAUGUUCGUGUGGAACUGAACGUAGAAGGGAUUAGAU [Aramaa] (puzzle: Exclusion 5)				31.1 nM	28.3 nM	24.5 nM
GAUCCACAUGAGGAUCACCCAUGUGAGGAUAUGAUACUAUGUACUUCGGUACAUAGUAUCAGAAGGCACAUUGA [Ex1-3: 45] (puzzle: Exclusion 1)					136 nM	
GUGAAACAUGAGGAUCACCCAUGUGAGGAUAUGUUUUAGUACUGCAGACAGUACAUCUAUAGAAGGCACAAUGG [Mat - Mod of JL D74] (puzzle: Exclusion 1)					37 nM	
CGCCUGGGAGGAUAUCCAAUAUAUGACAUGAGGAUCACCCAUGUUUCCACUCGUACCUCCGGAGAAGGCCCGGCGU [Ex5 #31] (Eterna round: R97, puzzle: Exclusion 5)	21.7 nM	26.7 nM				
